Article doi:10.1101/2023.08.31.555674, “New structural features of the APC/C from high-resolution cryo-EM structures of apo-APC/C and APC/C^CDH1:EMI1 complexes” (bioRxiv, 2023)

Experiments:
[1] = target: T1, APC1 subunit of the anaphase-promoting complex/cyclosome (human, UniProt Q9H1A4 1-1944); assay: cryo-EM structure; APC/C^CDH1:EMI1 ternary complex, 2.9 Å; complex and grids prepared as described previously [19]; Titan Krios, Falcon 3; APC/C subunits co-expressed, complex purified; conditions: both partners purified
T1 construct: APC1, human, subunit of recombinant APC/C; Stood assembled in the unphosphorylated recombinant APC/C; source: recombinant human APC/C, modified MultiBac system, as described previously [51,52]; purified within the APC/C

[2] = target: T2, APC8 subunit of the anaphase-promoting complex/cyclosome (human, UniProt Q9UJX2 1-597); assay: as above; conditions: both partners purified
T2 construct: APC8, human, subunit of recombinant APC/C; Stood assembled in the recombinant APC/C; the contacts are told of the copy APC8(B); also called APC8(B); source: recombinant human APC/C, modified MultiBac system, as described previously [51,52]; purified within the APC/C

B1: CDH1 (APC/C coactivator subunit) (natural protein, human, UniProt Q9UM11-2 1-493, looked up)
chain: MDQDYERRLLRQIVIQNENTMPRVTEMRRTLTPASSPVSSPSKHGDRFIPSRAGANWSVNFHRINENEKSPSQNRKAKDATSDNGKDGLAYSALLKNELLGAGIEKVQDPQTEDRRLQPSTPEKKGLFTYSLSTKRSSPDDGNDVSPYSLSPVSNKSQKLLRSPRKPTRKISKIPFKVLDAPELQDDFYLNLVDWSSLNVLSVGLGTCVYLWSACTSQVTRLCDLSVEGDSVTSVGWSERGNLVAVGTHKGFVQIWDAAAGKKLSMLEGHTARVGALAWNAEQLSSGSRDRMILQRDIRTPPLQSERRLQGHRQEVCGLKWSTDHQLLASGGNDNKLLVWNHSSLSPVQQYTEHLAAVKAIAWSPHQHGLLASGGGTADRCIRFWNTLTGQPLQCIDTGSQVCNLAWSKHANELVSTHGYSQNQILVWKYPSLTQVAKLTGHSYRVLYLAMSPDGEAIVTGAGDETLRFWNVFSKTRSTKESVSVLNLFTRIR
notes: CDH1, human; the last residue printed for CDH1 is 493 (chimera: residues 24 to 493 of CDH1), so the isoform of 493 residues is meant; the tag is told in the methods for CDH1 in general; source: expressed and purified as described previously [19,23,27]
B1: binds [1]; binds [2].
